The supplement of paper PMC11780869

Tested on: Bacillus subtilis
Assay: cleaved RNA product abundance (RNA/gDNA barcode ratio) relative to median wild-type variant (ratio to wild type); higher = more accumulation of the downstream cleavage product
Method in brief: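 B. subtilis strains with chromosomally integrated reporter mRNAs (truncated aprE or tetM) holding barcoded, mutagenized RNase Y cleavage-site windows grew in LB at 37°C from OD600 0.0003 to 0.3. Cleaved product abundance is each construct's RNA:gDNA barcode ratio, scaled to the median construct with the unmutated site. It came from sequencing barcodes of gel-selected, reverse-transcribed cleaved RNA and of genomic DNA.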

[1] = experiment (reporter, strain, medium): exp 2b: truncated aprE reporter, strain BJT200, cleavage site: cggR-gapA (positions -7 to +36 mutated)
[2] = experiment (reporter, strain, medium): exp 4a: truncated aprE reporter, strain BJT201 with 2% xylose (RNase J1 expressed), cleavage site: cggR-gapA (positions -7 to +36 mutated)
[3] = experiment (reporter, strain, medium): exp 8a: truncated aprE reporter, strain BJT201 with 2% xylose (RNase J1 expressed), cleavage site: glnRA (positions -5 to +31 mutated)
[4] = experiment (reporter, strain, medium): exp 6: tetM reporter, strain 168, cleavage site: cggR-gapA (positions -7 to +36 mutated)

Sequence	cleaved RNA product abundance [1]	cleaved RNA product abundance [2]	cleaved RNA product abundance [3]	also measured
ACAGACGAAGGAGCCGCAAAGAAGTTATAAAGGGATGCATAATCCCTCAATATAAATATCTCTCACTTATTTAAA	0.309	0.241	–	–
ACAGACGAAGGAGCCGCAAAGAAGTTATTAAGGGAGGAATAACCCCTCAATATAAATATCTCTCACTTATTTAAA	–	0.213	–	–
CGACATGTCCCGCTTCTTTCATTACTCCGTTAGCAACTGTTTTGCTATATACATTCACCTTTTAAGAGGAGGAAT	–	–	0.658	–
CGACATGTCCCGCTTCTTTCATTAATCCGTTATCAACTGTTTTGCTATATACTTTTACCTTTTAAGAGGAGGAAT	–	–	0.295	–
ACAGACGAAGGAGCCGCAAAGTAGTAATTAAGGGATGAATAATCCCTCAATATAAATATCTCTCACTTATTTAAA	–	0.191	–	–
CGACATGTCCCGCTTCTTTCATTAATCCGTTTGCAACTGTTTAGCTATATACATTTACCTTTTAAGAGGAGGAAT	–	–	0.517	–
ACAGACGAAGGAGCCGCTAAGAAGTTATTAAGGGATGAATAATCACTCAATATAAATATCTCTCACTTATTTAAA	–	0.129	–	–
CGACATGTCCCGCTTCTTTCATTACTCCGTCAGCAACTGTTTTGCTATATACATTTACCTTTTAAGAGGAGGAAT	–	–	0.381	–
ACAGACGAAGGAGCCGCAAAGAAGTTATTAAGGGATGAATAATCCCACAATATAAACATCTCTCACTTATTTAAA	–	0.277	–	–
ACAGACGAAGGAGCCGCAAAGAAGTCATTAAGGGATGAATAATCCCTCAATATAAACATCTCTCACTTATTTAAA	–	0.333	–	–
ACAGACGAAGGAGCCGCAAAGAATTTATTAATGGATGAATAATCCCTCAATATAAATATCTCTCACTTATTTAAA	0.105	0.111	–	–
CGACATGTCCCGCTTCTTTCATTACTCCGTTAGCAACTGTTTTGCTCTATACATTTACCTTTTAAGAGGAGGAAT	–	–	0.288	–
ACAGACGAAGGAGCCGCAAATAAGTTATTAAGGGATGAATAACCCCTCAATATAAATATCTCTCACTTATTTAAA	0.582	0.494	–	–
ACAGACGAAGGAGCCGCAAAGAATTTATTAAAGGATGAATAATCCCTCAATATAAATATCTCTCACTTATTTAAA	0.171	0.213	–	–
ACAGACGAAGGAGCCGCAAAGAAGTTATTAAGGGTTGAATAATCTCTCAATATAAATATCTCTCACTTATTTAAA	–	0.244	–	–
ACAGACGAAGGAGCCGCAAAGAAGTTATTAACGGATGAATAATCCCTCAATACAAATATCTCTCACTTATTTAAA	–	0.0789	–	–
ACAGACGAAGGAGCCGCAAAGAAGTTATTAAGGGATGAATACTCCCTTAATATAAATATCTCTCACTTATTTAAA	–	0.47	–	–
CGACATGTCCCGCTTCTTTCATTAATCCGTTAGCAACTGTTTTGCTATATACATTTAGGTTTTAAGAGGAGGAAT	–	–	0.86	–
ACAGACGAAGGAGCCGCAAAGCAGTTATTAAAGGATGAATAATCCCTCAATATAAATATCTCTCACTTATTTAAA	0.136	–	–	–
ACAGACGAAGGAGCCGCAAAGAAGTTATTAAGGGATGAATAATTCCTCAATATAAATATCTCTCACTTATTTAAA	0.506	0.616	–	cleaved RNA product abundance [4]: 0.494

Sequence	cleaved RNA product abundance [1]	cleaved RNA product abundance [2]	cleaved RNA product abundance [3]	also measured
CGACATGTCCCGCTTCTTTCATTAATCCGTTAGCAACTGTTTTGCAATAAACATTTACCTTTTAAGAGGAGGAAT	–	–	0.232	–
ACAGACGAAGGAGCCGCAAAGAAGTTATTAAGGGCTGAATAATCCCTTAATATAAATATCTCTCACTTATTTAAA	–	0.626	–	–
ACAGACGAAGGAGCCGCAAAGAAGTTAATAAGGGATGAATAATCCCTCACTATAAATATCTCTCACTTATTTAAA	–	0.263	–	–
ACAGACGAAGGAGCCGCAAAGAAGTTATTAAGGCATGAATACTCCCTCAATATAAATATCTCTCACTTATTTAAA	–	0.072	–	–
ACAGACGAAGGAGCCGCAAAGAAGTTACAAAGGGATGAATAATCCCTCAATATAAATATCTCTCACTTATTTAAA	–	0.257	–	–
CGACATGTCCCGCTTCTTTCATTAATCCGTTGGCAACTGTTTAGCTATATACATTTACCTTTTAAGAGGAGGAAT	–	–	0.38	–
ACAGACGAAGGAGCCGCAAATAAGTTATTAAGGGATGAATAATCCCTCAATATAAAGATCTCTCACTTATTTAAA	0.535	0.565	–	–
CGACATGTCCCGCTTCTTTCATTATTCCGATAGCAACTGTTTTGCTATATACATTTACCTTTTAAGAGGAGGAAT	–	–	0.898	–
CGACATGTCCCGCTTCTTTCATTAATACGTTAGCAACTGTTTTGCTATATACATTTACCTTTTAAGAGGAGGAAT	–	–	0.97	–
CGACATGTCCCGCTTCTTTCATTAATCCGTTAGCAACTGTATTGGTATATACATTTACCTTTTAAGAGGAGGAAT	–	–	0.175	–
ACAGACGAAGGAGCCGCAAAGACGTTATTAAGGGATGAATAATCCGTCAATATAAATATCTCTCACTTATTTAAA	–	0.192	–	–
ACAGACGAAGGAGCCGCAAACAAGTTATTAAGGGATGAATAATCCCTCAACATAAATATCTCTCACTTATTTAAA	–	0.25	–	–
ACAGACGAAGGAGCCGCAAAGAAGTTATTAAGGGATGAATAATACCTCAATATAAATATCTCTCACTTATTTAAA	0.117	0.152	–	cleaved RNA product abundance [4]: 0.151
ACAGACGAAGGAGCCGCAATGAAGTTATTTAGGGATGAATAATCCCTCAATATAAATATCTCTCACTTATTTAAA	–	0.738	–	–
CGACATGTCCCGCTTCTTTCATTACTCTGTTAGCAACTGTTTTGCTATATACATTTACCTTTTAAGAGGAGGAAT	–	–	0.791	–
ACAGACGAAGGAGCCGCAAAGAAGTTATTAAATGATGAATAATCCCTCAATATAAATATCTCTCACTTATTTAAA	0.0939	0.1	–	–
ACAGACGAAGGAGCCGCAAAGAAGTTATTAAGGGATGAATAATCCCTCAAAATAAATATCTCTCACTTATTTAAA	0.302	0.393	–	cleaved RNA product abundance [4]: 0.369
ACAGACGAAGGAGCCGCATAGAAGTTATTAAAGGATGAATAATCCCTCAATATAAATATCTCTCACTTATTTAAA	–	0.199	–	–
ACAGACGAAGGAGCCGCAAAGAACTTATTAAGGGATGAATAATCCATCAATATAAATATCTCTCACTTATTTAAA	0.15	0.209	–	–
CGACATGTCCCGCTTCTTTCATTAATCCGTTAGCAACTGTTTTGCTATATAAATTTACGTTTTAAGAGGAGGAAT	–	–	1.02	–

Sequence	cleaved RNA product abundance [1]	cleaved RNA product abundance [2]	cleaved RNA product abundance [3]	also measured
ACAGACGAAGGAGCCGCAAAGAAGTTATTAAGGGATGACTATTCCCTCAATATAAATATCTCTCACTTATTTAAA	–	0.804	–	–
CGACATGTCCCGCTTCTTTCATTAATCCGTTATTAACTGTTTTGCTATATACATTTACCTTTTAAGAGGAGGAAT	–	–	0.337	–
CGACATGTCCCGCTTCTTTCATTAATCCTTTAAAAAGTGTTTTGCTATATACATTTACCTTTTAAGAGGAGGAAT	–	–	0.182	–
CGACATGTCCCGCTTCTTTCATTAATCCGTGAGCAACTGTTTTGCTATATACATTTAACTTTTAAGAGGAGGAAT	–	–	0.854	–
ACAGACGAAGGAGCCGCAAAGAATTTATTAAGGGATGAATAATCCCTCAATATAAACATCTCTCACTTATTTAAA	0.291	0.683	–	–
ACAGACGAAGGAGCCGCAAGGAAGTTATCAAGGGATGAATAATCCCTCAATATAAATATCTCTCACTTATTTAAA	0.271	0.347	–	–
ACAGACGAAGGAGCCGCAAAGAAGTTATTATGGGATCAATAATCCCTCAATATAAATATCTCTCACTTATTTAAA	0.23	–	–	–
CGACATGTCCCGCTTCTTTCATTAATCCGTTCACAACTGTTTTGCTATATACATTTACCTTTTAAGAGGAGGAAT	–	–	0.224	–
ACAGACGAAGGAGCCGCAAAGAACTTATTAAGGCATGAATAATCCCTCAATATAAATATCTCTCACTTATTTAAA	0.114	0.099	–	–
CGACATGTCCCGCTTCTTTCATTAATCCGTTAGCAACTGTTTTGTTATATACATTTACCCTTTAAGAGGAGGAAT	–	–	0.388	–
ACAGACGAAGGAGCCGCAAAGAAGTTATTAATGGATGAATAATCGCTCAATATAAATATCTCTCACTTATTTAAA	0.077	–	–	–
ACAGACGAAGGAGCCGCAAAGAAGTTATGAAGGGATGAATAATCCCTCAATATAAATATCTCTCACTTATTTAAA	0.384	0.502	–	cleaved RNA product abundance [4]: 0.205
ACAGACGAAGGAGCCGCAAAGAAGTTATTAAGGGATGAATAAACCCTCTATATAAATATCTCTCACTTATTTAAA	0.151	–	–	–
CGACATGTCCCGCTTCTTTCATTATTCCATTAGCAATTGTTTTGCTATATACATTTACCTTTTAAGAGGAGGAAT	–	–	1.33	–
ACAGACGAAGGAGACGCAAAGAAGTTATTAAGGGATGAATAATCCCTCAATATAAATATCTCTCACTTATTTAAA	–	–	–	cleaved RNA product abundance [4]: 1.03
ACAGACGAAGGAGCCGCAAAGAAGTTATTAAGGGATGAATACTCCCTCAATATAAAAATCTCTCACTTATTTAAA	0.511	0.819	–	–
ACAGACGAAGGAGCCGCAAAGTAGTTCTTAAGGGATGAATAATCCCTCAATATAAATATCTCTCACTTATTTAAA	–	0.195	–	–
ACAGACGAAGGAGCCGCAAAGAAGTTATAAAAGGATGAATAATCCCTCAATATAAATATCTCTCACTTATTTAAA	0.153	0.165	–	–
ACAGACGAAGGAGCCGCAAAGAAGTTATTAAAGGATGAATAATCACTCAATATAAATATCTCTCACTTATTTAAA	0.0796	0.14	–	–
